Assay [1] deals with MPL-zalpha11 chimera (MPL extracellular and transmembrane domains fused to the zalpha11 intracellular signaling domain) (human). As to the kind of experiment: cell-based or functional assay.
Assay [2] concerns the target factor present in the activated CD3+ selected human T-cell conditioned media. As to the kind of experiment: cell-based or functional assay.

For two substances, proliferation of BaF3/MPL-zalpha11 cells (Alamar Blue), fold over background (fold over background), inhibition of conditioned-medium-driven BaF3/Zalpha11 cell growth; soluble receptor concentration giving complete inhibition and titration of soluble receptor; lowest concentration completely inhibiting BaF3/Zalpha11 growth results are on record in US20030148447A1.

The substance thrombopoietin (TPO) (ligand) registered a proliferation of BaF3/MPL-zalpha11 cells (Alamar Blue), fold over background (fold over background) in assay [1] of 10.

On to “zalpha11-Fc4 soluble receptor (zalpha11 extracellular domain fused C-terminally to human IgG Fc, Fc4) (from UniProt Q9HBE5 20-237) (Fc fusion)”, for which, in assay [2], the inhibition of conditioned-medium-driven BaF3/Zalpha11 cell growth; soluble receptor concentration giving complete inhibition worked out at 10 µg/mL and the titration of soluble receptor; lowest concentration completely inhibiting BaF3/Zalpha11 growth came out at 1.5 µg/mL.
